Here are results for one molecule from PMC4191419, “SSX2 is a novel DNA-binding protein that antagonizes polycomb group body formation and gene repression”.

As a reminder, the Kd is a measure of binding affinity in units of concentration.

The target in this data set is SSX2 (rSSX2) (UniProt Q16385 1-188). Briefly: MST; Hill coefficient 3.0; 50 nM DNA; EMSA: 20 mM Tris-HCl pH 7.4, 50 mM NaCl, 1 mM DTT (complexes stable at 75 mM, dissolved at 250 mM NaCl; fragment used not stated); MST: 20 mM Tris-HCl pH 7.4, NaCl printed as 50 nM (probably 50 mM), 0.05% NP40, ambient temperature, 2 h. As to conditions: protein: recombinant. In general terms: A gel shift assay detects complexes by their altered migration in electrophoresis.
Sequence of SSX2 (rSSX2) (Q16385 whole entry, the tested form may be a part): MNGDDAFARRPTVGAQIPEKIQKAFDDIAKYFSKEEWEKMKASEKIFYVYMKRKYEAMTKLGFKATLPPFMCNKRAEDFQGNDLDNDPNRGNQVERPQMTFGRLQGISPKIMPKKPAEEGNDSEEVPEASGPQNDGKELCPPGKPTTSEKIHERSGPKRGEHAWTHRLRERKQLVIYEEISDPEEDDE

B1: Cy5 random 30-nt dsDNA (dsDNA)
DNA 1: CGTCTATACTTTCACAATGTTGACCTGCAC
DNA 2: GTGCAGGTCAACATTGTGAAAGTATAGACG
B1: the Kd was determined as 1800 ± 200 nM.
